In US20230192897A1 (NUMAB THERAPEUTICS, published 2023):
Values joined by “and” are separate entries in the source; they are usually repeats but may differ in a detail not shown here. Identical values can stand only once. Like-named read-outs stand apart in the source and are kept apart here.

Columns and labels:
human PDL1 on cells [1] = biological target: T1, human PDL1 on cells (human, UniProt Q9NZQ7 19-290); experiment: cell-based or functional assay
biotinylated human PDL1 [2] = biological target: T2, biotinylated human PDL1 (human, UniProt Q9NZQ7 19-238, limits assumed, biotinylated); experiment: competition ELISA PD-1/PDL1
T2 construct: also called biotinylated PDL1

mouse serum albumin = biological target: T3, mouse serum albumin (mouse, UniProt P07724 25-608); experiment: SPR, SA coupled to chip, pH 5.5
T3 construct: Coupled directly to the CM5 chip; also called MSA; mouse SA
Description: (§1) Affinity of molecules to serum albumin (SA) of the different species was determined by SPR measurements using a Biacore T200 device (GE Healthcare). SA was directly coupled to a CM5 sensor chip (GE Healthcare) using amine coupling chemistry. […] The assay was run in a 1× PBS-Tween buffer at pH 5.5.

human serum albumin = biological target: T4, human serum albumin (human, UniProt P02768 25-609); experiment: SPR, SA coupled to chip, pH 5.5
T4 construct: Coupled directly to the CM5 chip; also called HSA; human SA
Description: as §1

Fc tagged human PDL1 = biological target: T5, Fc tagged human PDL1 (human, UniProt Q9NZQ7 19-239); experiment: SPR
T5 construct: Bought (Sino Biological, cat. 10084-H02H); captured on the SPR chip; also called PDL1-Fc chimeric protein
Outline: (§2)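 Kinetics were fitted with a one-to-one Langmuir model to give apparent ka, kd and KD. Binders at 0.12-90 nM (three-fold series) flowed 3 min, with 10 min dissociation and 3 M MgCl₂ regeneration, on a Biacore T200.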

Fc tagged human CD137 = biological target: T6, Fc tagged human CD137 (human, UniProt Q07011 24-186); experiment: SPR
T6 construct: also called CD137-Fc chimeric protein
Outline: as §2

biotinylated human PDL1 [3] = biological target: T2, biotinylated human PDL1; experiment: competition ELISA B7.1/PDL1
Outline: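 IC₅₀ was derived by four-parameter logistic fitting of reference-subtracted A450/690 readings. The signal came from streptavidin-polyHRP40 (10 ng/ml) with a 6-minute TMB reaction detecting biotinylated PDL1 bound to the plate. Pre-mixed samples sat 1 h at RT before a 1.5 h plate incubation.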

[4] = biological target: T7, CD137 on Jurkat NFkB reporter cells (human, UniProt Q07011 24-255); experiment: cell-based or functional assay
[5] = biological target: T7, CD137 on Jurkat NFkB reporter cells; experiment: cell-based or functional assay; remark: listed apart in the source
[6] = biological target: T7, CD137 on Jurkat NFkB reporter cells; experiment: cell-based or functional assay; remark: listed apart in the source
[7] = biological target: T7, CD137 on Jurkat NFkB reporter cells; experiment: cell-based or functional assay; remark: listed apart in the source
[8] = biological target: T7, CD137 on Jurkat NFkB reporter cells; experiment: cell-based or functional assay; remark: listed apart in the source
[9] = biological target: cynomolgus CD137-Fc chimeric protein (cynomolgus monkey, UniProt A9YYE7 24-186); experiment: SPR
Outline: as §2

[10] = biological target: T8, mouse CD137-Fc chimeric protein (mouse, UniProt P20334 24-187, limits assumed); experiment: SPR
T8 sequence (looked up): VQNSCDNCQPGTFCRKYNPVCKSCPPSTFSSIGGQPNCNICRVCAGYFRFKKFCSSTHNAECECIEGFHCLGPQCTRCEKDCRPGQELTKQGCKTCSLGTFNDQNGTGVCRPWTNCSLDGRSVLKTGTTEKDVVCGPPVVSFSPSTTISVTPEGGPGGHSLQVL
Outline: as §2

[11] = biological target: T7, CD137 on Jurkat NFkB reporter cells; experiment: cell-based or functional assay; remark: listed apart in the source
[12] = biological target: T7, CD137 on Jurkat NFkB reporter cells; experiment: cell-based or functional assay; remark: listed apart in the source
[13] = biological target: T7, CD137 on Jurkat NFkB reporter cells; experiment: cell-based or functional assay; remark: listed apart in the source
human PDL1 on cells [14] = biological target: T1, human PDL1 on cells; experiment: cell-based or functional assay; remark: listed apart in the source

Row | Binder | IC50 (biotinylated human PDL1 [2]) [ng/mL] | rel. IC50 (IC50 avelumab/IC50 test) (biotinylated human PDL1 [2]) [fold] | Kd (Fc tagged human PDL1) [pM] | koff (Fc tagged human PDL1) [s⁻¹] | kon (Fc tagged human PDL1) [M⁻¹ s⁻¹] | Kd (Fc tagged human CD137) [nM] | koff (Fc tagged human CD137) [s⁻¹] | IC50 (biotinylated human PDL1 [3]) [µg/mL] | rel. IC50 (IC50 avelumab/IC50 test) (biotinylated human PDL1 [3]) [fold] | EC50, NFkB reporter, HCC827 with IFNg [6] | EC50, NFkB reporter, HCC827 without IFNg [7] | kon (Fc tagged human CD137) [M⁻¹ s⁻¹] | EC50, NFkB reporter, CHO-PDL1 [12] | IC50 (ng/ml), NFkB reporter, CHO-PD-L1 [4] [ng/mL] | IC50 (ng/ml), NFkB reporter, HCC827 + IFNg [4] [ng/mL] | IC50 (ng/ml), NFkB reporter, HCC827 - IFNg [4] [ng/mL] | max. activation (%), NFkB reporter, CHO-PD-L1 [4] [%] | max. activation (%), NFkB reporter, HCC827 + IFNg [4] [%] | max. activation (%), NFkB reporter, HCC827 - IFNg [4] [%] | rel. IC50 (urelumab/test), NFkB reporter, CHO-PD-L1 [4] [fold] | other results
1 | PRO1186 (other, trispecific scDb-scFv; also called 38-02-A04 sc01 scDb-i/37-20-B03sc01 scDb-o/23-13-A01-sc03 scFv) DIQMTQSPSSLSASVGDRVTITCQASQSIGTYLAWYQQKPGKAPKLLIYRAFILASGVPSRFSGSGSGTDFTLTISSLQPEDFATYYCQSNFYSDSTTIGPNAFGTGTKVTVLGGGGGSQVQLQESGPGLVKPSETLSLTCKVSGFSFSNSYWICWIRQPPGKGLEWIGCTFVGSSDSTYYANWAKGRVTISVDSSKNQFSLKLSSVTAADTAVYYCARHPSDAVYGYANNLWGQGTLVTVSSGGGGSGGGGSGGGGSGGGGSDIQMTQSPSSLSASVGDRVTITCQASQSINNVLAWYQQKPGKAPKLLIYRASTLASGVPSRFSGSGSGTDFTLTISSLQPEDFATYYCQSSYGNYGDFGTGTKVTVLGGGGGSQVQLQESGPGLVKPSETLSLTCKVSGFSFNSDYWIYWIRQPPGKGLEWIGSIYGGSSGNTQYASWAQGRVTISVDSSKNQFSLKLSSVTAADTAVYYCARGYVDYGGATDLWGQGTLVTVSSGGGGSGGGGSVVMTQSPSSLSASVGDRVTITCQASQIISSRSAWYQQKPGQPPKLLIYQASKLASGVPSRFSGSGSGTDFTLTISSLQPEDFATYYCQCTYIDSNFGAFGGGTKLTVLGGGGGSGGGGSGGGGSGGGGSEVQLVESGGGLVQPGGSLRLSCAASGFSFSSSYWICWVRQAPGKGLEWVGCVFTGDGTTYYASWAKGRFTISRDNSKNTVYLQMNSLRAEDTATYFCARPVSVYYYGMDLWGQGTLVTVSS | 1.74 | 1.26 | 3.7 | 2.3e-05 | 6.2e+06 | 2.6 | 0.0005 | 0.00781 | 1.58 | – | – | – | – | – | – | – | – | – | – | – | IC50 (ng/ml), NF-AT potency assay, +HSA (human PDL1 on cells [1]): 10.2 ng/mL; rel. IC50 (avelumab/test), +HSA (human PDL1 on cells [1]): 2.31 fold; kon (mouse serum albumin): 220000 M⁻¹ s⁻¹; Kd (human serum albumin): 2.9 nM; koff (human serum albumin): 0.00072 s⁻¹; kon (human serum albumin): 250000 M⁻¹ s⁻¹; IC50 (ng/ml), NFkB reporter, CHO-PD-L1, 24 h, +HSA [4]: 51 ng/mL; IC50 (ng/ml), NFkB reporter, HCC827 + IFNg, 24 h, +HSA [4]: 16.7 ng/mL; max. activation (%), NFkB reporter, CHO-PD-L1, 24 h, +HSA [4]: 152%; rel. IC50 (urelumab/test), NFkB reporter, CHO-PD-L1, 24 h, +HSA [4]: 0.97 fold; rel. IC50 (urelumab/test), NFkB reporter, HCC827 + IFNg, 24 h, +HSA [4]: 1.88 fold
2 | PRO885 (bispecific antibody, scDb anti-PDL1 x CD137; also called 38-02-A04 sc01 scDb-i/33-03-G02 sc01 scDb-o) DIQMTQSPSSLSASVGDRVTITCQASQSINDYLAWYQQKPGKAPKLLIYKASTLASGVPSRFSGSGSGTDFTLTISSLQPEDFATYYCQQGYIITDIDNVFGTGTKVTVLGGGGGSQVQLQESGPGLVKPSETLSLTCKVSGFSFSNSYWICWIRQPPGKGLEWIGCTFVGSSDSTYYANWAKGRVTISVDSSKNQFSLKLSSVTAADTAVYYCARHPSDAVYGYANNLWGQGTLVTVSSGGGGSGGGGSGGGGSGGGGSIQMTQSPSSLSASVGDRVTITCQASQSINNVLAWYQQKPGKAPKLLIYRASTLASGVPSRFSGSGSGTDFTLTISSLQPEDFATYYCQSSYGNYGDFGTGTKVTVLGGGGGSQVQLQESGPGLVKPSETLSLTCKVSGFSFSSGYDMCWIRQPPGKGLEWIGCVVAGSVDITYYASWAKGRVTISVDSSKNQFSLKLSSVTAADTAVYYCARKDAYSDAFNLWGQGTLVTVSS | 8.35 | 0.17 | – | 0.00014 | 2.1e+06 | – | 0.00076 | 0.0122 | 0.59 | 9.27 ng/mL and 8.88 ng/mL and 9.23 ng/mL | 11.5 ng/mL and 13.1 ng/mL and 13 ng/mL | 240000 | 5.13 ng/mL and 4.86 ng/mL and 6.3 ng/mL | 11.7 | 8.88 | 13.1 | 499 | 134 | 111 | 6.75 | EC50, NFkB reporter, HCC827 with IFNg, 24 h [5]: 7.51 ng/mL; EC50, NFkB reporter, HCC827 without IFNg, 24 h [5]: 9.52 ng/mL; IC50 (ng/ml), NF-AT potency assay (human PDL1 on cells [1]): 137 ng/mL; rel. IC50 (avelumab/test) (human PDL1 on cells [1]): 0.28 fold; EC50, NFkB reporter, CHO-PDL1 [8]: 11.7 ng/mL; Kd [9]: 2.1 nM; koff [9]: 0.0007 s⁻¹; kon [9]: 340000 M⁻¹ s⁻¹; Kd [10]: 600 nM; koff [10]: 0.18 s⁻¹; kon [10]: 290000 M⁻¹ s⁻¹; EC50, NFkB reporter, CHO-PDL1, 6 h [11]: 7.84 ng/mL; EC50, NFkB reporter, CHO-PDL1, 6 h, +HSA [11]: 7.92 ng/mL; EC50, NFkB reporter, CHO-PDL1, 24 h [13]: 13.8 ng/mL; EC50, NFkB reporter, CHO-PDL1, 24 h, +HSA [13]: 14.8 ng/mL; rel. IC50 (urelumab/test), NFkB reporter, HCC827 + IFNg [4]: 16.3 fold; rel. IC50 (urelumab/test), NFkB reporter, HCC827 - IFNg [4]: 8.42 fold
3 | PRO1126 (bispecific antibody, scDb; also called 38-02-A04 sc01 scDb-i/33-03-G02 sc03 Full scDb-o) DFQLTQSPSSLSASVGDRVTITCQASQSINDYLAWYQQKPGKSPKLLIYKASTLASGVPSRFSGSGSGTDFTLTISSLQPEDFATYYCQQGYIITDIDNVFGTGTKVTVLGGGGGSQVQLQESGPGLVKPSETLSLTCKVSGFSFSNSYWICWIRQPPGKGLEWIGCTFVGSSDSTYYANWAKGRVTISVDSSKNQFSLKLSSVTAADTAVYYCARHPSDAVYGYANNLWGQGTLVTVSSGGGGSGGGGSGGGGSGGGGSIQMTQSPSSLSASVGDRVTITCQASQSINNVLAWYQQKPGKAPKLLIYRASTLASGVPSRFSGSGSGTDFTLTISSLQPEDFATYYCQSSYGNYGDFGTGTKVTVLGGGGGSQSQLQESGPGLVKPSETLSLTCKASGFSFSSGYDMCWVRQPPGKGLEWIACVVAGSVDITYYASWAKGRVTISKDSSKNQVSLKLSSVTAADTAVYFCARKDAYSDAFNLWGQGTLVTVSS | 1.28 | 1.59 | ≤ 3.5 | < 1e-05 | – | 3.5 | 0.00075 | – | – | 5.48 ng/mL | 6.97 ng/mL | 210000 | 6 ng/mL | 6 | 5.48 | 6.97 | 242 | 208 | 135 | 14.4 | Top of curve fit, NFkB reporter, HCC827 with IFNg [6]: 208; Top of curve fit, NFkB reporter, HCC827 without IFNg [7]: 135; fold improvement in affinity against PRO885 (CDR graft) (Fc tagged human PDL1): 20 fold; binding result [10]: no binding; IC50, NFAT reporter gene assay (human PDL1 on cells [14]): 48.1 ng/mL; Top of curve fit, NFkB reporter, CHO-PDL1 [12]: 242; rel. IC50 (urelumab/test), NFkB reporter, HCC827 + IFNg [4]: 19.7 fold; rel. IC50 (urelumab/test), NFkB reporter, HCC827 - IFNg [4]: 16 fold
